What was measured:
[1] = target: eel follicle-stimulating hormone receptor (eel FSHR) on CHO-K1 cells (eel)
[2] = target: eel follicle-stimulating hormone receptor (eel FSHR) on HEK293 cells (eel)

Substance	cAMP production (HTRF) in CHO-K1 cells transiently expressing eel FSHR, 30 min, dose-response: EC50 [1] [µg/mL]	pERK1/2 HTRF ratio in HEK293 cells transiently expressing eel FSHR, time course 0-30 min after agonist; peak at 5 min [2]
recombinant single-chain (tethered) eel follicle-stimulating hormone, wild type (eel FSH β/α-wt) (ligand)	0.16	7460
recombinant single-chain eel follicle-stimulating hormone mutant with the eCG β-subunit CTP linker (amino acids 115–149) between the β-subunit and the α-subunit (eel FSH-M) (from UniProt P08751 135-169) (ligand)	0.129	7090

Source: paper PMC11242883
